One molecule from paper PMC7596504, “Molecular mechanism of the MORC4 ATPase activation” (Nature Communications, 2020) can be followed below.

The test system of one test is MORC4. Nature of the test: ATPase activity assay (EnzChek Phosphate Assay Kit). The format is biochemical, human. As to conditions: listed as E56A mutant of MORC4. The protocol: To determine whether MORC4 is catalytically active, we produced the ATPase domain of human MORC4 and examined its ability to hydrolyze ATP in enzymatic assays (Fig. 1a–c). Following incubation of the ATPase domain with ATP, 2-amino-6-mercapto-7-methylpurine ribonucleoside and nucleoside phosphorylase, the release of inorganic phosphate generated by the hydrolysis of ATP to ADP was monitored by measuring an increase in absorbance at 360 nm.
The ATPase assays were performed using the EnzChek Phosphate Assay Kit (Invitrogen, item # E6646). The reactions were carried out on 1.0 µM of MORC4 His-ATPase or ATPaseCW (WT and mutants), in the presence and absence of 1 µM 601 DNA or 50 µM of unmodified H3 or H3K4me3 peptide (aa 1–12 of H3) in a buffer containing 50 mM Tris-HCl (pH 7.5), 150 mM NaCl, 1 mM MgCl2, 0.1 mM sodium azide, 200 µM MESG, and 1 U of PNP. In assay with the nucleosome, 0.5 µM of MORC4 ATPaseCW and 0.5 µM NCP167 (Activemotif) were used. The reaction was started by adding 2 mM ATP to the mixture at room temperature, and the release of inorganic phosphate was monitored by measuring the absorbance at 360 nm on a Nanodrop 2000c spectrophotometer (Thermo Scientific). In the presence of inorganic phosphate, produced by the hydrolysis of ATP to ADP, MESG is enzymatically converted to ribose 1-phosphate and […] by PNP, resulting in a shift in the wavelength absorbance from 330 nm for MESG to 360 nm for the product. The rate of ATP self-hydrolysis was measured in parallel. Error was calculated as the S.D. of at least three separate experiments (two in Fig. 4j).

In test [1] the test system is HEK293T cells. Briefly: Cell cycle analysis by flow cytometry. The class given is cell-based. To be noted: 48-h overexpression of mCherry-tagged protein, EdU/PI; average of three independent experiments; control 34.5%. The protocol: For DNA content analysis, 10^6 cells previously transfected with mCherry MORC4 constructs and labeled with 25 µM Ethynyl deoxyUridine (EdU) for 1 h in 100 µL were washed with PBS (NaCl 137 mM, KCl 2.7 mM, Na2HPO4 10 mM, KH2PO4 1.8 mM) and fixed in ice cold 70% ethanol overnight. Fixed cells were washed and resuspended in PBS containing 0.05% NP40 and incubated at room temperature for 30 min. Cells were again washed with PBS. Cells were resuspended in Alexa Fluor 647 click staining solution (100 mM Tris pH 7.6, 4 mM CuSO4, 3 µM AF647 azide, 100 mM Sodium Ascorbate) for 1 h. Following staining, cells were washed with PBS and then stained for total DNA content using 10 μg/mL propidium iodide (PI) and 0.2 mg/ml RNase A for 60 min before analysis on a FACScan instrument. Data were analyzed using FlowJo (Version 10) with cells gated to remove doublets. EdU vs PI plots were gated in quadrants to identify G1, early S, late S and G2/M cells. S phase fractions were summed for total S phase population. […]

The subject of test [2] is HEK293T cells. Briefly: MORC4 localization and nuclear bodies (confocal microscopy). The class given is cell-based. To be noted: 127 cells quantified. The method, then:
WT mCherry-MORC4, mCherry-MORC4 E56A, mCherry-MORC4 W435A, mCherry-MORC4 E56A/W435A, mCherry-MORC4 K460A/R462A/R463A, or mCherry control plasmid were transfected into 2 million 293T-HEK cells seeded on 25 mm circular coverslips (Carolina Biological Supply Item#: 633057) in 10-cm-diameter tissue culture dish by Lipofectamine 3000 (Life Technology, L3000-075) following the manufacturer’s instructions. Two days after transfection, cells were stained with Hoechst […] for 30 min and imaged live on a ZeissAxiovert 200 M inverted microscope fitted with a ×40 oil objective. Images were acquired with Slidebook 6 software and exported for analysis in Image J.
mCherry foci sizes were calculated using ImageJ image processing program (version 1.51) using the Analyze Particle tool. mCherry particle sizes were collected for MORC4 WT and MORC4 W435A transfected cells. Data were plotted with R (version 3.4.1) using ggplot2 (version 3.2.1). Cell size and mCherry foci count per cell were calculated using CellProfile cell image analysis software (version 3.1.5) to identify nuclei and mCherry foci, relate mCherry foci to nuclei containing them and measure the size of nuclei and number mCherry foci contained. Data were plotted with R (version 3.4.1) using ggplot2 (version 3.2.1).

A further test deals with 601 DNA. Nature of the test: EMSA with 601 DNA. The format is binding. As to conditions: 147 bp 601 DNA 5 pmol, pH 7.5, 150 mM NaCl, 0.5 h on ice, listed as E56A mutant of MORC4. The method, then: EMSA experiments were performed essentially as described. In brief, increasing amounts of WT or mutant CW or ATPaseCW cassette of MORC4 were incubated with 147 bp 601 DNA (5 pmol) or 50 ng of O’RangeRuler 5 bp ladder (Thermo Scientific) in a DNA-binding buffer containing 20 mM Tris-HCl (pH 7.5), 150 mM NaCl, 2.5 mM MgCl2, and 2 mM DTT for 0.5 h on ice. The reaction mixtures were loaded on 5% native polyacrylamide gels, and electrophoresis was performed in 0.2× Tris-borate-EDTA (TBE) buffer at 100 V for 1.2 h on ice. Gels were stained with SYBR Gold (Invitrogen).
On the technique in general: In EMSA bound probe runs differently from free probe, usually more slowly.

Entries after “also recorded” stand apart in the source; their conditions may differ.

B1: MORC4 E56A: mCherry-tagged full-length MORC4 E56A mutant, catalytically impaired ATPase domain (protein, UniProt Q8TE76 1-937, looked up, variant E56A)
chain: MLLYRGAPAGPGAPGCGLARPGGGPQAFGIRLSTMSPRYLQSNSSSHTRPFSAIAALLDNAVDPDVSARTVFIDVEEVKNKSCLTFTDDGCGMTPHKLHRMLSFGFTDKVIKKSQCPIGVFGNGFKSGSMRLGKDALVFTKNGGTLTVGLLSQTYLECVQAQAVIVPIVPFNQQNKKMIITEDSLPSLEAILNYSIFNRENDLLAQFDAIPGKKGTRVLIWNIRRNKNGKSELDFDTDQYDILVSDFDTEEKMTGGVTSELPETEYSLRAFCGILYMKPRMKIFLRQKKVTTQMIAKSLANVEYDTYKPTFTNKQVRITFGFSCKNSNQFGIMMYHNNRLIKSFEKVGCQVKPTRGEGVGVIGVIECNFLKPAYNKQDFEYTKEYRLTINALAQKLNAYWKEKTSQDNFETSTVARPIPKVPDQTWVQCDECLKWRKLPGKIDPSMLPARWFCYYNSHPKYRRCSVPEEQELTDEDLCLSKAKKQEQTVEEKKKMPMENENHQVFSNPPKILTVQEMAGLNNKTIGYEGIHSPSVLPSGGEESRSPSLQLKPLDSSVLQFSSKYKWILGEEPVEKRRRLQNEMTTPSLDYSMPAPYRRVEAPVAYPEGENSHDKSSSERSTPPYLFPEYPEASKNTGQNREVSILYPGAKDQRQGSLLPEELEDQMPRLVAEESNRGSTTINKEEVNKGPFVAVVGVAKGVRDSGAPIQLIPFNREELAERRKAVESWNPVPYSVASAAIPAAAIGEKARGYEESEGHNTPKLKNQRELEELKRTTEKLERVLAERNLFQQKVEELEQERNHWQSEFKKVQHELVIYSTQEAEGLYWSKKHMGYRQAEFQILKAELERTKEEKQELKEKLKETETHLEMLQKAQVSYRTPEGDDLERALAKLTRLRIHVSYLLTSVLPHLELREIGYDSEQVDGILYTVLEANHILD
modifications: full-length mCherry tag
Regarding B1, the “catalytic (ATPase) activity of the protein” value with MORC4 was “catalytically impaired ATPase domain; also recorded: catalytically inactive”. Besides, the “percent of cells in S phase” value with HEK293T cells [1] was found to be 36.3%. In addition, in the test on HEK293T cells [2], the “number of NBs compared to wild type” value is recorded as “significant increase in number of mCherry foci per cell” and the “size of NBs compared to wild type” value is given as “significant decrease in mCherry foci size”. Also, in the test on HEK293T cells [2] (listed as E56A mutant of MORC4), the “number of NBs compared to wild type” value is reported as “notable increase in the number of NBs” and the “size of NBs compared to wild type” value is recorded as “decrease in the size of NBs”. In the test with 601 DNA, the “binding to 601 DNA” value is “retains its DNA-binding activity; also recorded: binds DNA as WT MORC4”.
